Measured values taken from the DeepSol protein solubility set.

experiment: soluble on expression in E. coli; label from the status in PepcDB or PDB records

Question: Which “soluble on expression in E. coli” value does the source give for “MGSDKIHHHHHHMVATLAEQIKAEAIALGFDKVGIASVDPPDTEALAALDRWLAQGYQAEMDWMASDRRRDVRNLLPNAQSVICVALNYYSGDHPDPSPEVGKIARYAWGRDYHRVVEKRLKALARWLQTQQPDCECRWYVDSGPIADKVWAQRAGLGWIAKNSNVISREFGSWIFLGELVTTLALPADRPHTAHCGSCSRCLEACPTQAIVEPYVVDANRCIAYHTIENRAADLPAAIAQNLQGWVAGCDICQEVCPWNQRFAQITTLPDLQPRSELLAPALAELATLSEEAWDQQFQGSALRRIKPAMWRRNSRANLRQQSEGNRLS” here?
Answer: not soluble

Question: Which “soluble on expression in E. coli” value does the source give for “MLLTGKLYKEEKQKFYDAQNGKCLICQRELNPDVQANHLDHDHELNGPKAGKVRGLLCNLCDAAEGQMKHKFNRSGLKGQGVDYLEWLENLLTYLKSDYTQNNIHPNFVGDKSKEFSRLGKEEMMAEMLQRGFEYNESDTKTQLIASFKKQLRKSLK” here?
Answer: soluble

Question: For “MAVESRSRVTSKLVKAHRAMLNSVTQEDLKVDRLPGADYPNPSKKYSSRTEFRDKTDYIMYNPRPRDEPSSENPVSVSPLLCELAAARSRIHFNPTETTIGIVTCGGICPGLNDVIRSITLTGINVYNVKRVIGFRFGYWGLSKKGSQTAIELHRGRVTNIHHYGGTILGSSRGPQDPKEMVDTLERLGVNILFTVGGDGTQRGALVISQEAKRRGVDISVFGVPKTIDNDLSFSHRTFGFQTAVEKAVQAIRAAYAEAVSANYGVGVVKLMGRDSGFIAAQAAVASAQANICLVPENPISEQEVMSLLERRFCHSRSCVIIVAEGFGQDWGRGSGGYDASGNKKLIDIGVILTEKVKAFLKANKSRYPDSTVKYIDPSYMIRACPPSANDALFCATLATLAVHEAMAGATGCIIAMRHNNYILVPIKVATSVRRVLDLRGQLWRQVREITVDLGSDVRLARKLEIRRELEAINRNRDRLHEELAKL”, which “soluble on expression in E. coli” value is on record?
Answer: soluble

Question: With “MDYEKTLLMPKTDFPMRGGLPNKEPQIQEKWDAEDQYHKALEKNKGNETFILHDGPPYANGNLHMGHALNKILKDFIVRYKTMQGFYAPYVPGWDTHGLPIEQALTKKGVDRKKMSTAEFREKCKEFALEQIELQKKDFRRLGVRGDFNDPYITLKPEYEAAQIRIFGEMADKGLIYKGKKPVYWSPSSESSLAEAEIEYHDKRSASIYVAFNVKDDKGVVDADAKFIIWTTTPWTIPSNVAITVHPELKYGQYNVNGEKYIIAEALSDAVAEALDWDKASIKLEKEYTGKELEWVVAQHPFLDRESLVINGDHVTTDAGTGCVHTAPGHGEDDYIVGQQYELPVISPIDDKGVFTEEGGQFEGMFYDKANKAVTDLLTEKGALLKLDFITHSYPHDWRTKKPVIFRATPQWFASISKVRQDILDAIENTNFKVNWGKTRIYNMVRDRGEWVISRQRVWGVPLPVFYAENGEIIMTKETVNHVADLFAEHGSNIWFEREAKDLLPEGFTHPGSPNGTFTKETDIMDVWFDSGSSHRGVLETRPELSFPADMYLEGSDQYRGWFNSSITTSVATRGVSPYKFLLSHGFVMDGEGKKMSKSLGNVIVPDQVVKQKGADIARLWVSSTDYLADVRISDEILKQTSDDYRKIRNTLRFMLGNINDFNPDTDSIPESELLEVDRYLLNRLREFTASTINNYENFDYLNIYQEVQNFINVELSNFYLDYGKDILYIEQRDSHIRRSMQTVLYQILVDMTKLLAPILVHTAEEVWSHTPHVKEESVHLADMPKVVEVDQALLDKWRTFMNLRDDVNRALETARNEKVIGKSLEAKVTIASNDKFNASEFLTSFDALHQLFIVSQVKVVDKLDDQATAYEHGDIVIEHADGEKCERCWNYSEDLGAVDELTHLCPRCQQVVKSLV” as the sequence, how does the “soluble on expression in E. coli” value read?
Answer: soluble

Question: For “MLLAYQSVIASITYLNPNIRFQLSRRCPSLKSAEKSAPLFINKLKLCTNSVVVNDISYEVDVYKTSEAVLLTYNTDLDVFGSIDFDLEIEEQNEILLDHRTYMAERMRLEREVLGLMTHSRNPNADLSRLMEINRLNKIRIQAREDRREVPNTPPEPPLVQVIEFAVMETDNYGDCLENEQLTYDRKLHDAVKYIMEKLFCGRKTPVHLSTLSINSFGILRIPLNMRFKIRHLKLVSGHANEIASKIRPIIEDSSFPLKSIIIKDPVEFDDPIYHSTQLLVLRHQLENRSPRFLNVKVLPNQLYVTTKILNWVQQARPVGTCWEFVGIDKNSKRQCVQKLMQIPGAMRALHTKLCWIILPANDDSEIHVTVAQDKINSKQFSIKLTVY”, which “soluble on expression in E. coli” value is on record?
Answer: not soluble

Question: For “MQDSVLGVMQPDGFQDIVAARFREARAGGLISTVFQIEIDDHTSLVERHGQRAAEVISTTSADRIAAVLRDRDAVTHLDTFKYAVCLEPVRQMDLELCIQLAGRIQAALEEPIALDATAVCITSSVGFCQQTKVLSRSGEAWLAAAGHALREAHLNGPGAIRAYSLEHHHHHH”, which “soluble on expression in E. coli” value is on record?
Answer: not soluble

Question: With “MKLANTKGERKLEQKLYYTDAYKQDFTTKVIKQDYDKDGNLYVILNETVFYPTGGGQPHDTGTLNGIAVLGVEEVDEEIRHFIAEQLHTEEVEGKINWERRFDHMQQHAAQHILSAAFWDYFNIPTIGFHLGKETVTIDLETENLHAETVEKAVQIANKIVFENHPILIKWMNLEEAKTLPLRKEPTMTENIRVVMIENFDYNGCGGTHPKRTGEVGPIQVLGWERNKGGIRLTFIAGWRTLKLMGQQQQIMKDVSKQLNSSEADIPAKVAQLLTSQKENKKAMQTMTEKLLYTEANELLQQPTKIHAGILISKVFTNRSMQEIAKLSAIITEQQEHAITYFVIENEDKLQCILACGKTVTLDMNALLKEALPTIEGKGGGNKKSARGGGKAMMSGDEFLNQLISSLQSAV” as the sequence, how does the “soluble on expression in E. coli” value read?
Answer: not soluble

Question: With “MGGWEEREIRGHSLGHWLSAAAAMYETTGDKALLERIDRAVQELATIQDDVGYVGGVKRAHFDEMFSGEFQVGHFNIAGTWVPWYNLHKLFAGLIDVHQLTGHSLALTVVTKLADWAKKGTDQLTDDQFQRMLICEHGGMNEAMADLYTLTGHKDYLQLAIRFCHWAVLEPLANGIDELEGKHANTQIPKVIGAAKLFEITGDDTYRAIAEFFWRQVTNDRSYIIGGNSNSEHFGPANKETLGVETAETCNTYNMLKLTEHLFRWNRSSQLMDYYEKALYNHILASQDPDSGMKTYFVSLQPGHFKVYSSLEESFWCCFGTGLENPARYTRTIYDRDDRHIYVNLFMASEIHLKDLQVQIRQETNFPETDRTKLTFVKADGVSIKLHIRVPEWVAGPVTARINGKETFSESGADYLTIEREWQKGDEIEVHLPMELRIYEAKDDSHKVGIMYGPIVLAGTFGKDHFPETDIVPNHLSLHNHPLIDVPTLVATKKTPDQWIHPVEGRSLTFRTAAIGQPGNVQITLIPFYALHHERYTVYWNLMSEVEYEAFKARKEVESDQLQARTVDAVQPGEQQPEVEHQLKANHSETGYLNIMQKRWRDSRGEDGFFSYVMKVKPNQQMSLFVTYYGGDHGLFVDGKWCDRSFRILIDDEVIKEEQLLGKNPGETLDVYYPIPLALTEGKEEVVVTFASKEGTVAGGVYGVRMLCNLEHHHHHH” as the sequence, how does the “soluble on expression in E. coli” value read?
Answer: not soluble

Question: For “MVKIHPDLTTSGAGEETSSPYLTTEQESFTIWMKSLVFNTNGCTVFDSKGNIIYRVDNYNSKSCREVYLMDLSGHVLFTLRRQKFGLFKTWEGYRSSSATVESTTKLEYFRVKNNVFQVPNKDSSSSYRVNAGSCRNDEQYCYKMVTRGSSLAIEDNCGKLLAEVKRKQSINGLKLGDDVLTMMVESQVDHSFIIGLVLAHSLINCIL”, which “soluble on expression in E. coli” value is on record?
Answer: soluble

Question: Which “soluble on expression in E. coli” value does the source give for “MGSDKIHHHHHHMTNMKQLCLICLAFICLFFLDSCGNKNTFRVEGSIAGYEDTAQVYLTKIIGSDLSVLDSVNPDRKGRFSFVAQADSTPSFYQIKLRKQHINFAARIGSEINIQVGRNSFSDYVIEDNQGPDNNNIRKIALLKEQADNRLDHLYRSYQENKLDASQYQDTIAKVIDEFKTTLRNDFIFQDPKSPASYFALFQQKDGLLYFNVYDPMDAKAFAAVATAYDTYYPTSSYTKSVRDLSLLGIAAMRRDRVAKDITTRKIEVKDIPETILIDRKGNEQPLSKVVETNDRVLIVFTSYQAEWSPSLVKEQRALYQRHCNNGFQIYEISVDKDLYFWQNATRTLPWITVNDSEGKAALSFNVRSLPTFFLIQDGELKRLQRLESL” here?
Answer: not soluble

Question: For “MSLDKIFVEEAVSELHTLQDMIRWTVSRFNAANLFYGQGTDNAWDEAVQLILPTLYLPIDVPPHVLSSRLTSSERLRVVERVIKRINDRTPVAYLTNKAWFCGLEFFVDSRVLVPRSPIGELIQNRFEPWLTEEPTRIMDLCTGSGCIAIACANAFPEAEVDAIDISVDALNVAEQNIQDHGLEQQVFPIRSDLFRDLPQEQYDLIVTNPPYVDQEDMDSLPSEFRHEPELGLAAGSDGLKLARRILANAPLYLKENGILVCEVGNSMVHMMEQYPHIPFTWLEFENGGHGVFLLTREQLIDCAADFALYKDEGHHHHHH”, which “soluble on expression in E. coli” value is on record?
Answer: soluble

Question: With “MAAKRLAVLCIFLLPNTQFRQLRLAETAEELPQLLREAEKASWTYLEFLESITRYELAKREAKSLEKRMKWARFPFVKSLDEFELRGQNVLTARQLSQLRELSWLEQQYNLILLGPPGIGKTYIAIGLGLEAVYRGFHVYFATMGELVQLLKSEEYLNKSKVQLKRIRNADLVIIDDLMYMAMDQREANLFFHLINHLYERSSIILTSNKSPEEWGHLIGDQGITTAILDRLLHRVEVIHGGENEESHRMKNRKSIFSAEVLEHHHHHH” as the sequence, how does the “soluble on expression in E. coli” value read?
Answer: not soluble

Question: For “MGSDKIHHHHHHMPIKSRAVVIPKRNTIEIRTVQVNEPKAGDVLIKTAFTSISAGTERMLLDGRLPQPQLLFPVVPGYETVGQVVQVGSKAPKELLGQWVYIGGARCFRGVNAAWGGQSEYITAEHERVVPLGSLDPATGVLLALAATALHGIKIGQIRRSDRVLVLGQGIVGQLAARLAKYAGAQHVAVADRVAVRLQASQADQVIDVTRESLDEAIGEAKVDVLIEATGSMGALSGALPLLANHGRVVLLGYYDHINIPYAPVFMREAQILVAREWEFGPDGDLPRVRDLLANGDLKVDGLLTHHVPLDRIQAAYRLAPGRPGLFEGCCHVAAKRYRRSVVLTRQGAMRISLEREMALCPPIQKRNNQVQQHECSPSTAKAAWENHSSPPIW”, which “soluble on expression in E. coli” value is on record?
Answer: not soluble

Question: For “MTWFIDRRLNGKNKSMVNRQRFLRRYKAQIKQSISEAINKRSVTDVDSGESVSIPTEDISEPMFHQGRGGLRHRVHPGNDHFVQNDRIERPQGGGGGSGSGQGQASQDGEGQDEFVFQISKDEYLDLLFEDLALPNLKQNQQRQLTEYKTHRAGYTANGVPANISVVRSLQNSLARRTAMTAGKRRELHALEENLAIISNSEPAQLLEEERLRKEIAELRAKIERVPFIDTFDLRYKNYEKRPDPSSQAVMFCLMDVSGSMDQSTKDMAKRFYILLYLFLSRTYKNVEVVYIRHHTQAKEVDEHEFFYSQETGGTIVSSALKLMDEVVKERYNPAQWNIYAAQASDGDNWADDSPLCHEILAKKLLPVVRYYSYIEITRRAHQTLWREYEHLQSTFDNFAMQHIRDQDDIYPVFRELFHKQNATAKGLEHHHHHH”, which “soluble on expression in E. coli” value is on record?
Answer: not soluble

Question: With “SVFYFTSSSVNSSAYTIYMGKDKYENEDLIKHGWPEDIWFHVDKLSSAHVYLRLHKGENIEDIPKEVLMDCAHLVKANSIQGCKMNNVNVVYTPWSNLKKTADMDVGQIGFHRQKDVKIVTVEKKVNEILNRLEKTKVERFPDLAAEKECRDREERNEKKAQIQEMKKREKEEMKKKREMDELRSYSSLMKVENMSSNQDGNDSDEFM” as the sequence, how does the “soluble on expression in E. coli” value read?
Answer: soluble

Question: With “MGSDKIHHHHHHMSRALAKPEIITELSFEEIRAAVLTHLKELLPEYTFLESDPAVKVIEAFSYRELLLRQRINEAARNNILDFATGESLDALGNWHGIARIEGESDERYRERVQLHARGGNGSGTEPYYKLIALTADSRVKDAIIYRKGKDPTIYVAIFGNNEEGTASEDLLQTVSQALHRKNIIMTNDTIIVHAAVKKVLDLEADVWLLPEASLKILTTMEANLRTAWKQEQAIGRELSLSWWVSKLMIPGVQKVIAIAPTKDSVVCDEEILSIGKITLNFKGRAR” as the sequence, how does the “soluble on expression in E. coli” value read?
Answer: not soluble
